Laboratory results as given in PMC3777628 (Virology, 2013).

Target: the molecule itself
Experiment: SDS-PAGE of SDS-resistant dimers and oligomers

Protein | binding result
MBP-Agno Ala(34–36) (natural protein) MVLRQLSRKASVKVSKTWSGTKKRAQRILIFLLAAALDFCTGEDSVDGKKRQRHSGLTEQTYSALPEPKAT | binds
MBP-Agno (17–71) (domain or fragment) TWSGTKKRAQRILIFLLEFLLDFCTGEDSVDGKKRQRHSGLTEQTYSALPEPKAT | binds
AQRILIFLLEFLLDFCTGEDSVDGKKRQRHSGLTEQTYSALPEPKAT (domain or fragment) [MBP-Agno (25–71)] | binds
ILIFLLEFLLDFCTGEDSVDGKKRQRHSGLTEQTYSALPEPKAT (domain or fragment) [MBP-Agno (28–71)] | binds
